This test deals with tracheobronchial secretion in rats. Nature of the test: Mucolytic activity in rats: tracheobronchial secretion of fluorescein sodium (FINa). Type of test: in vivo, rat (Swiss Albino Rats). The following applies: for Percentage (%) Enhancement of FINa secretion compared to Normal: versus normal group (G1). As to the method: The effect of the compositions of the present invention was studied in animals. For this study, screening effect of synergistic combination of compositions/formulations comprising N-Acetyl-L-Cysteine, Lactoferrin and additional active ingredients for mucolytic activity in rat was performed. The following trials were carried out:
Eighty-Four (84) rats including male and female (Swiss Albino Rats) divided into 14 groups (6 per group) were maintained in animal house in a light/dark atmosphere based on a 12 hour cycle having temperature and relative humidity in the range of 19 to 25±2° C. and 30-70%, respectively. To maintain the appropriate conditions, temperature and relative humidity were recorded three times daily. All animals were acclimatized for a minimum period of five days. Animals were maintained in the test setup for minimum 30 minutes once during the acclimatization period to reduce the stress. Animals were weighed on the day of receipt and observed daily for abnormalities if any. Detailed records of acclimatization were also maintained. Rats were housed 3 per cage in clean, sterilized Polypropylene cages. During complete experiments, animals were supplied with the standard certified rat pellet feed and drinking water treated by reverse osmosis ad libitum.
In order to evaluate the mucolytic activity in rats, eighty-four (84) rats were screened and divided into Fourteen (14) groups. For a comparative analysis, groups were divided and treated as below:
Tracheobronchial secretion in rats, expressed by the amount of fluorescein sodium (FINa) dye excreted into the respiratory tract, was measured by modification of methods published earlier.
Lactoferrin, Carotenoid, N-Acetyl-L-Cysteine or their combinations (G4-G14) were suspended in 1% Acacia. […]
The tracheobronchial lavage fluid (4.9±0.1 ml) was centrifuged (3500 rpm for 10 minutes) and the supernatant was transferred to STP B & L tubes. The fluorescence intensity of the supernatant was measured with a Genesys 20 spectrophotometer set at a wavelength of 510 nm (emission).

B1: Lactoferrin (protein, UniProt P02788 20-710, looked up)
Lactotransferrin: GRRRSVQWCAVSQPEATKCFQWQRNMRKVRGPPVSCIKRDSPIQCIQAIAENRADAVTLDGGFIYEAGLAPYKLRPVAAEVYGTERQPRTHYYAVAVVKKGGSFQLNELQGLKSCHTGLRRTAGWNVPIGTLRPFLNWTGPPEPIEAAVARFFSASCVPGADKGQFPNLCRLCAGTGENKCAFSSQEPYFSYSGAFKCLRDGAGDVAFIRESTVFEDLSDEAERDEYELLCPDNTRKPVDKFKDCHLARVPSHAVVARSVNGKEDAIWNLLRQAQEKFGKDKSPKFQLFGSPSGQKDLLFKDSAIGFSRVPPRIDSGLYLGSGYFTAIQNLRKSEEEVAARRARVVWCAVGEQELRKCNQWSGLSEGSVTCSSASTTEDCIALVLKGEADAMSLDGGYVYTAGKCGLVPVLAENYKSQQSSDPDPNCVDRPVEGYLAVAVVRRSDTSLTWNSVKGKKSCHTAVDRTAGWNIPMGLLFNQTGSCKFDEYFSQSCAPGSDPRSNLCALCIGDEQGENKCVPNSNERYYGYTGAFRCLAENAGDVAFVKDVTVLQNTDGNNNEAWAKDLKLADFALLCLDGKRKPVTEARSCHLAMAPNHAVVSRMDKVERLKQVLLHQQAKFGRNGSDCPDKFCLFQSETKNLLFNDNTECLARLHGKTTYEKYLGPQYVAGITNLKKCSTSPLLEACEFLRK
notes: multifunctional globular glycoprotein of the transferrin family, molecular mass about 80 kDa
Consider B1, for which, under “dosed 30 minutes before i.v. FINa 300 mg/kg, tracheobronchial lavage one hour after administration, doses as Table 1, mean±SEM”, the “Fluorescein Sodium (FINa) Secretion” value was found to be 1.79 ± 0.04 μg/100 g/h. The “Percentage (%) Enhancement of FINa secretion compared to Normal” value amounted to 25.17 ± 1% (doses as Table 1) and 25.17% (doses as Table 1, listed as Lactoferrin).
